The values below come from patent US20260041702A1.

Experiment [1] concerns the target TRFE receptor, TRF1, on Rat2 fibroblasts (rat) (UniProt Q99376). The experiment can be described thus: HATRIC-LRC (LRC-TriCEPS) ligand-receptor capture on Rat2 fibroblasts, LC-MS/MS; positive control of the screen.
Experiment [2] deals with CCN1 found in the HEK293A cell screen (human) (UniProt O00622). The experiment can be described thus: HATRIC-LRC (LRC-TriCEPS) ligand-receptor capture on HEK293A cells, LC-MS/MS; reference BSA control ligand.
Chain of UniProt O00622 (O00622 25-381 limits assumed): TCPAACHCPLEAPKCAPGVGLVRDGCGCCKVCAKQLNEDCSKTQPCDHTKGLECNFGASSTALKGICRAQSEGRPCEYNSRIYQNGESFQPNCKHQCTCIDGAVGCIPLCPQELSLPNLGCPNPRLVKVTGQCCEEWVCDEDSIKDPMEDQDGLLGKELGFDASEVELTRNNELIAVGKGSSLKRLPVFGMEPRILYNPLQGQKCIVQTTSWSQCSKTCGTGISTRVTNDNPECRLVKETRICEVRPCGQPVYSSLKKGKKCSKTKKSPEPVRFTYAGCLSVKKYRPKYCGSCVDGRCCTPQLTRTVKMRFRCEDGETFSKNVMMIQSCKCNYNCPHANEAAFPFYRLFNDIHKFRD
Experiment [3] has as its target GPC1 on HEK293A cells (human) (UniProt P35052). The description is as above.
Chain of UniProt P35052 (P35052 24-530 limits assumed): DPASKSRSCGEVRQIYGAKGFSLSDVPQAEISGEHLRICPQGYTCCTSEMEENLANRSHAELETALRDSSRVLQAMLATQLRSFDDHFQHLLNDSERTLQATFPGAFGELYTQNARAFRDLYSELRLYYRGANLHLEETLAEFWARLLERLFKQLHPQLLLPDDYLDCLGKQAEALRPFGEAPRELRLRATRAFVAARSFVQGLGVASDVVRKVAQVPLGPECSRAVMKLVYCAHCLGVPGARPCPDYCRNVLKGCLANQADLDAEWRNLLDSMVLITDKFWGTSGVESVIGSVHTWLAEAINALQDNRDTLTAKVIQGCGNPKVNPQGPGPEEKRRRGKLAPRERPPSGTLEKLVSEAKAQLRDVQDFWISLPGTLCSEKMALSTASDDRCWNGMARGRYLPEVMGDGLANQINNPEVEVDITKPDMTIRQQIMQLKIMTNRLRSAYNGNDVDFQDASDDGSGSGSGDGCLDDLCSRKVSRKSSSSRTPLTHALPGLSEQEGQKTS
For experiment [4], the target named is GPC4 on HEK293A cells (human) (UniProt O75487). Described as above.
Chain of UniProt O75487 (O75487 19-529 limits assumed): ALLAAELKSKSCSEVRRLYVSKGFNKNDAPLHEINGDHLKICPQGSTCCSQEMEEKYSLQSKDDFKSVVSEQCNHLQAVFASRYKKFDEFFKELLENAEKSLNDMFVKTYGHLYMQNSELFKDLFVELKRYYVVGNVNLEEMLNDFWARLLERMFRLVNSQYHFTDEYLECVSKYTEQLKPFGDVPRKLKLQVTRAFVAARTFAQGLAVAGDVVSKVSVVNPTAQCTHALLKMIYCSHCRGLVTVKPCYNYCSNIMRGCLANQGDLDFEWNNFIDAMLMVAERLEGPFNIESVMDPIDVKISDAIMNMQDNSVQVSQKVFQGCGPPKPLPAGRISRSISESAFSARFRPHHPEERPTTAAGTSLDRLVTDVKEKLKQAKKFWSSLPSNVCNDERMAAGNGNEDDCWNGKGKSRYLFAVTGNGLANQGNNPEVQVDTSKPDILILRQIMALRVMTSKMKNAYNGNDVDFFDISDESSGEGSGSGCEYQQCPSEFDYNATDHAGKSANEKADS
Experiment [5] concerns the target PTK7 on HEK293A cells (human) (UniProt Q13308). The experiment is described as above.
Chain of UniProt Q13308 (Q13308 31-1070 limits assumed): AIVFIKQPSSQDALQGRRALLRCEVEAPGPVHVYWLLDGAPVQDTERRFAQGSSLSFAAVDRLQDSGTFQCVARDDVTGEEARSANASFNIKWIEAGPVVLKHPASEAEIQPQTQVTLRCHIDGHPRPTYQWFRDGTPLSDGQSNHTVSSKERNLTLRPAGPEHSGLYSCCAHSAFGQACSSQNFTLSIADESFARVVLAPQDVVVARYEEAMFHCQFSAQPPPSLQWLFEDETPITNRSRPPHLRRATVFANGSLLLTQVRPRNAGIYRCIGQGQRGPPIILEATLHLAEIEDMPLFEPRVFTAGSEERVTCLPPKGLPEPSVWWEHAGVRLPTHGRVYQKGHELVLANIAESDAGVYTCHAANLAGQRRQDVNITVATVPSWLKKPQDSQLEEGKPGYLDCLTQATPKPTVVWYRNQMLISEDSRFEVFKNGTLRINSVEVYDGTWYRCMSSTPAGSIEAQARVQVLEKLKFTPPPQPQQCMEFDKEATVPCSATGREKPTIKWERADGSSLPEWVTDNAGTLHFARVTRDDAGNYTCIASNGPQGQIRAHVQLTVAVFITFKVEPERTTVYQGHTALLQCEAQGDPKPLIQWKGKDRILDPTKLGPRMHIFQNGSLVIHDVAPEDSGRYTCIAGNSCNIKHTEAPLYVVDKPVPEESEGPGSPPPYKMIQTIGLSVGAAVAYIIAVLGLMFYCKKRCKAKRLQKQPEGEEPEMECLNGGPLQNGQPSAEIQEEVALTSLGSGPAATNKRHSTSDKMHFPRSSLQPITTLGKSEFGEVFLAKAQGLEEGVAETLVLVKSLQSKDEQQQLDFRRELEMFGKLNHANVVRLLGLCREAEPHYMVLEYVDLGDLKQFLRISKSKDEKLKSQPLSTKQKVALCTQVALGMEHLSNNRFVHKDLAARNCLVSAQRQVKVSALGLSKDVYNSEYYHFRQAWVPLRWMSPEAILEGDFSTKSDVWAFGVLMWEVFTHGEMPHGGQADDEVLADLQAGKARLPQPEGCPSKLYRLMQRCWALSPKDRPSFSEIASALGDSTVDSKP
The target in experiment [6] is CCN1 found in the HEK293A cell screen (human) (UniProt O00622). Nature of the experiment: HATRIC-LRC (LRC-TriCEPS) ligand-receptor capture on HEK293A cells, LC-MS/MS; reference TRFE control ligand.
For experiment [7], the target named is GPC1 on HEK293A cells (human) (UniProt P35052). The experiment is described as above.
Experiment [8] deals with GPC4 on HEK293A cells (human) (UniProt O75487). The experiment is described as above.
The target in experiment [9] is PTK7 on HEK293A cells (human) (UniProt Q13308). The experiment is described as above.
Experiment [10] has as its target CCN1 found in the Rat2 cell screen (rat) (UniProt Q9ES72). The experiment can be described thus: HATRIC-LRC (LRC-TriCEPS) ligand-receptor capture on Rat2 fibroblasts, LC-MS/MS; reference BSA control ligand.
Chain of UniProt Q9ES72 (Q9ES72 25-379 limits assumed): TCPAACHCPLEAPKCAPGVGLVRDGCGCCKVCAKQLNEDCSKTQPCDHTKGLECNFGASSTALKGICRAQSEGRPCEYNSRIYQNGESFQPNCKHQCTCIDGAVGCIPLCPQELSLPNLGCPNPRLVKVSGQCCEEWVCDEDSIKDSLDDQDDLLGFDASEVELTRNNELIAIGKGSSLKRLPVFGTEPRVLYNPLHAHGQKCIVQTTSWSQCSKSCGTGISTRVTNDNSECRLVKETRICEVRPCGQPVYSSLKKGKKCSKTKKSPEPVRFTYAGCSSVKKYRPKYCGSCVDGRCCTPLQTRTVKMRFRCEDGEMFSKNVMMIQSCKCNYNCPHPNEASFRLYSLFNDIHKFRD
In experiment [11] the target is GPC1 on Rat2 fibroblasts (rat) (UniProt P35053). The description is as above.
Chain of UniProt P35053 (P35053 24-530): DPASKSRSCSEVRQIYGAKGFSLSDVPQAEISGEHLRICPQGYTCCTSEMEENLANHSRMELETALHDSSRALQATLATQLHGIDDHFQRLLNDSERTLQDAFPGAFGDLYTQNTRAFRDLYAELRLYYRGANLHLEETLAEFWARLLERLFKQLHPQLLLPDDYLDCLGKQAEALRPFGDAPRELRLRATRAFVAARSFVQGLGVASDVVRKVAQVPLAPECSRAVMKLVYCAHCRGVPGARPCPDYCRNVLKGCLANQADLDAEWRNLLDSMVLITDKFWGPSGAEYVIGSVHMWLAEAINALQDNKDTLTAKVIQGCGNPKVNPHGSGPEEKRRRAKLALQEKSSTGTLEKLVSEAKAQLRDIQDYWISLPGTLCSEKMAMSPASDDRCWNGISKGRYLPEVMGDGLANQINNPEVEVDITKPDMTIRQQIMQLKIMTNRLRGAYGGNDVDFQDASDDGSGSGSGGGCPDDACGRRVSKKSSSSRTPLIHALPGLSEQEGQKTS
The target in experiment [12] is PTK7 on Rat2 fibroblasts (rat). Described as above.
The target in experiment [13] is CCN1 found in the Rat2 cell screen (rat) (UniProt Q9ES72). Nature of the experiment: HATRIC-LRC (LRC-TriCEPS) ligand-receptor capture on Rat2 fibroblasts, LC-MS/MS; reference TRFE control ligand.
The target of experiment [14] is GPC1 on Rat2 fibroblasts (rat) (UniProt P35053). The description is as above.
For experiment [15], the target named is PTK7 on Rat2 fibroblasts (rat). The experiment is described as above.

Chain of UniProt Q99376 (Q99376 whole entry): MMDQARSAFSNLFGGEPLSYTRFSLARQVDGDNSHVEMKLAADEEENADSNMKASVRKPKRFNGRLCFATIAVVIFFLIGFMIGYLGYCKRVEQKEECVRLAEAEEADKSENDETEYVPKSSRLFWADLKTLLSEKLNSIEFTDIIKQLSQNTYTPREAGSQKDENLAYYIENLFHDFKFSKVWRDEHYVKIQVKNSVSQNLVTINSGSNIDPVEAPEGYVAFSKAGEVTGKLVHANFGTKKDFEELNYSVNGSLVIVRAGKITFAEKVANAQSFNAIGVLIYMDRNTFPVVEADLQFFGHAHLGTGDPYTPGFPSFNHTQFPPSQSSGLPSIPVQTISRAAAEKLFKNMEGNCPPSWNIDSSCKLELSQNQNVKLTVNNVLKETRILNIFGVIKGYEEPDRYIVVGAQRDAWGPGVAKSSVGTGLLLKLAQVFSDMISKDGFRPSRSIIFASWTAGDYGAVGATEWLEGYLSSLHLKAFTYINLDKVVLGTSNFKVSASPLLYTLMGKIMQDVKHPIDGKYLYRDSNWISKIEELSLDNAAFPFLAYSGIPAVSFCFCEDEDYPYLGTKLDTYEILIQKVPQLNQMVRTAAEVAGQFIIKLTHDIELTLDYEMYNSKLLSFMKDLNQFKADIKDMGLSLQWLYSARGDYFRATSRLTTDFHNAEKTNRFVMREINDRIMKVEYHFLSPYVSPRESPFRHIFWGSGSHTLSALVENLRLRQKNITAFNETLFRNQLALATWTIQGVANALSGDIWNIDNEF

For the molecule “transferrin (TRFE) coupled to TriCEPS v3.0 (ligand)”, the log 2 (FC), TRFE group against d34CCN2 group (log2 fold change) in experiment [1] is -2.8.

B1: recombinant, human C-terminal (domains III-IV) CCN2 coupled to TriCEPS v3.0 (ligand, UniProt P29279 197-349, looked up)
chain: ANCLVQTTEWSACSKTCGMGISTRVTNDNASCRLEKQSRLCMVRPCEADLEENIKKGKKCIRTPKISKPIKFELSGCTSMKTYRAKFCGVCTDGRCCTPHRTTTLPVEFKCPDGEVMKKNMMFIKTCACHYNCPGDNDIFESLYYRKMYGDMA
modifications: coupled to the trifunctional TriCEPS v3.0 molecule (site of coupling not stated)
Turning to B1, the log 2 (FC) enrichment relative to BSA (log2 fold change) in [2] amounted to 5.63; in [3], 2.85; in experiment [4], 2.85; in experiment [5] it was 3.26; in [10] it was 3.4; in [11], 4.2. For the same molecule, the log 2 (FC) enrichment relative to BSA (log2 fold change) in experiment [12] was found to be 2.7. Further, the log 2 (FC) enrichment relative to TRFE (log2 fold change) was 4.73 in experiment [6]; 4.19 in [7]; 2.84 in experiment [8]; 3.09 in [9]; 4.1 in experiment [13]; 4.4 in [14]. In [15], this molecule came in with a log 2 (FC) enrichment relative to TRFE (log2 fold change) of 3.
